Data: paper PMC6983367 (Proceedings of the National Academy of Sciences of the …, 2020)

Molecular target: bovine mitochondrial F1-ATPase β subunit (His-tagged) (bovine, UniProt P00829 47-528)
Experiment: dilution and ultrafiltration

Sequence of bovine mitochondrial F1-ATPase β subunit (His-tagged) (P00829 47-528): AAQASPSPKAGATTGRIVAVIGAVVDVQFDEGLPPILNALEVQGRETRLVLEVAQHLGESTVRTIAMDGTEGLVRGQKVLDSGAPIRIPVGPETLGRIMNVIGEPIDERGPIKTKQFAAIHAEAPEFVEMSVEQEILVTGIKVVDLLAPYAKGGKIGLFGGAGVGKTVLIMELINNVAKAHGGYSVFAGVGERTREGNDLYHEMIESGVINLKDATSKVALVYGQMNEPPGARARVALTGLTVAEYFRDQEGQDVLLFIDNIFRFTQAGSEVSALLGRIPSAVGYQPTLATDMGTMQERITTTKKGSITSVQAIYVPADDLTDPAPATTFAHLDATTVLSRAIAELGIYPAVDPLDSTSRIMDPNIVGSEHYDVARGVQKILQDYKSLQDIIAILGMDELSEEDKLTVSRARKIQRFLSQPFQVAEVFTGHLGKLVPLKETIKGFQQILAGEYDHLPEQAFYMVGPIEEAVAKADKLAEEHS

Row | Binder | binding result
1 | bovine mitochondrial F1-ATPase γ subunit (γA99C, γS191C) (natural protein) ATLKDITRRLKSIKNIQKITKSMKMVAAAKYARAERELKPARVYGVGSLALYEKADIKTPEDKKKHLIIGVSSDRGLCGAIHSSVAKQMKSEAANLAACGKEVKIIGVGDKIRSILHRTHSDQFLVTFKEVGRRPPTFGDASVIALELLNSGYEFDEGSIIFNRFRSVISYKTEEKPIFSLDTISSAESMCIYDDIDADVLRNYQEYSLANIIYYSLKESTTSEQSARMTAMDNASKNASEMIDKLTLTFNRTRQAVITKELIEIISGAAALD | binds
2 | bovine mitochondrial F1-ATPase ε subunit (natural protein) MVAYWRQAGLSYIRYSQICAKAVRDALKTEFKANAMKTSGSTIKIVKVKKE | binds
